Test results as given in patent publication US9284541B2, “Methods and compositions for protein labeling using lipoic acid ligases” (Massachusetts Institute of Technology, priority 2007, dated 2016).

Substrate: [N-]=[N+]=NCCCCCCCC(=O)O
Test: Measurement of LplA-probe ligation kinetics (HPLC)
Type: biochemical, E. coli
Conditions: other: ligation to E2p, 200 nM LplA; pH 7.0; 30.0 °C
Experimental: To measure the kcat for LplA ligation of lipoic acid to E2p, 50 nM LplA was combined with 200 μM E2p, 750 μM lipoic acid, […], and 2 mM magnesium acetate in 25 mM sodium phosphate pH 7.0. The reaction was initiated with addition of 1 mM ATP to the pre-warmed (30° C.) mixture. The reaction was incubated at 30° C., and 90 μL aliquots were removed every 5 minutes and quenched with 50 mM EDTA (final concentration). Samples were analyzed by C18 reverse-phase HPLC as described in the “Methods” section. Measurements were performed in triplicate. A calibration curve was obtained that correlated the ratio of integrated HPLC peak areas (E2p:E2p-probe) to the actual protein ratio, in order to compensate for differences in the extinction coefficients of E2p and lipoylated E2p. The amount of product obtained at each time point was plotted against time, to obtain the Vmax of the reaction. From this, the kcat value was obtained using the equation Vmax=kcat [E]total.
90 μL aliquots were removed from the 30° C. reactions at 5 minutes intervals, up to 30 minutes, and quenched with 50 mM EDTA (final concentration). Samples were analyzed by HPLC as above. The amount of product obtained at each time point was plotted against time, to obtain the initial velocity for each concentration of azide 7. […] From the Vmax value, kcat was calculated using the equation Vmax=kcat [E]total.

B1: E. coli LplA (Escherichia coli K-12) (protein)
chain: STLRLLISDSYDPWFNLAVEECIFRQMPATQRVLFLWRNADTVVIGRAQNPWKECNTRRMEEDNVRLARRSSGGGAVFHDLGNTCFTFMAGKPEYDKTISTSIVLNALNALGVSAEASGRNDLVVKTVEGDRKVSGSAYRETKDRGFHHGTLLLNADLSRLANYLNPDKKKLAAKGITSVRSRVTNLTELLPGITHEQVCEAITEAFFAHYGERVEAEIISPNKTPDLPNFAETFARQSSWEWNFGQAPAFSHLLDERFTWGGVELHFDVEKGHITRAQVFTDSLNPAPLEALAGRLQGCLYRADMLQQECEALLVDFPEQEKELRELSAWMAGAVR
Km: 127 ± 11 µM
